Changes are numbered by the printed parent chain.
Legend:
[1] = biological target: HSV-1 glycoprotein D-Fc fusion protein (HSV-1) (UniProt Q69091); assay: phage ELISA, glycoprotein D coated, anti-M13 HRP; well C3
[2] = biological target: HSV-1 glycoprotein D-Fc fusion protein (HSV-1) (UniProt Q69091); assay: SPR single-cycle kinetics, G-Fc captured on anti-human IgG, 25 C, 1:1 Binding fit; item G19 2, curve Fc=3-1; Table 6 calls the fit to the 1:1 model poor
[3] = biological target: HSV-1 glycoprotein D-Fc fusion protein (HSV-1) (UniProt Q69091); assay: SPR single-cycle kinetics, G-Fc captured on anti-human IgG, 25 C, 1:1 Binding fit; item G19, curve Fc=2-1; Table 6 calls the fit to the 1:1 model poor
[4] = biological target: HSV-1 glycoprotein D-Fc fusion protein (HSV-1) (UniProt Q69091); assay: phage ELISA, glycoprotein D coated, anti-M13 HRP; well B4
[5] = biological target: HSV-1 glycoprotein D-Fc fusion protein (HSV-1) (UniProt Q69091); assay: phage ELISA, glycoprotein D coated, anti-M13 HRP; well C6
[6] = biological target: HSV-1 glycoprotein D-Fc fusion protein (HSV-1) (UniProt Q69091); assay: SPR Biacore T200, single cycle kinetics, G-Fc captured on anti-human IgG, 1:1 fit, second run
[7] = biological target: HSV-1 glycoprotein D-Fc fusion protein (HSV-1) (UniProt Q69091); assay: SPR Biacore T200, single cycle kinetics, G-Fc captured on anti-human IgG, 1:1 fit
[8] = biological target: HSV-1 glycoprotein D-Fc fusion protein (HSV-1) (UniProt Q69091); assay: phage ELISA, glycoprotein D coated, anti-M13 HRP; well D6
[9] = biological target: HSV-1 glycoprotein D-Fc fusion protein (HSV-1) (UniProt Q69091); assay: SPR, G-Fc captured on anti-human IgG; low end tied to G44 by Table 6
[10] = biological target: HSV-1 glycoprotein D-Fc fusion protein (HSV-1) (UniProt Q69091); assay: phage ELISA, glycoprotein D coated, anti-M13 HRP; well C5
[11] = biological target: HSV-1 glycoprotein D-Fc fusion protein (HSV-1) (UniProt Q69091); assay: phage ELISA, glycoprotein D coated, anti-M13 HRP; well H3
[12] = biological target: HSV-1 glycoprotein D-Fc fusion protein (HSV-1) (UniProt Q69091); assay: SPR, G-Fc captured on anti-human IgG; high end tied to G77 by Table 6
[13] = biological target: HSV-1 glycoprotein D-Fc fusion protein (HSV-1) (UniProt Q69091); assay: phage ELISA, glycoprotein D coated, anti-M13 HRP; well E10
[14] = biological target: HSV-1 glycoprotein D-Fc fusion protein (HSV-1) (UniProt Q69091); assay: phage ELISA, glycoprotein D coated, anti-M13 HRP; well H5
[15] = biological target: HSV-1 glycoprotein D-Fc fusion protein (HSV-1) (UniProt Q69091); assay: phage ELISA, glycoprotein D coated, anti-M13 HRP; well D3
[16] = biological target: HSV-1 glycoprotein D-Fc fusion protein (HSV-1) (UniProt Q69091); assay: phage ELISA, glycoprotein D coated, anti-M13 HRP; well H1
[17] = biological target: HSV-1 glycoprotein D-Fc fusion protein (HSV-1) (UniProt Q69091); assay: phage ELISA, glycoprotein D coated, anti-M13 HRP; well D5
[18] = biological target: HSV-1 glycoprotein D-Fc fusion protein (HSV-1) (UniProt Q69091); assay: phage ELISA, glycoprotein D coated, anti-M13 HRP; well C8
[19] = biological target: HSV-1 glycoprotein D-Fc fusion protein (HSV-1) (UniProt Q69091); assay: phage ELISA, glycoprotein D coated, anti-M13 HRP; well F3
[20] = biological target: HSV-1 glycoprotein D-Fc fusion protein (HSV-1) (UniProt Q69091); assay: phage ELISA, glycoprotein D coated, anti-M13 HRP; well B2
[21] = biological target: HSV-1 glycoprotein D-Fc fusion protein (HSV-1) (UniProt Q69091); assay: SPR, G-Fc captured on anti-human IgG
[22] = biological target: HSV-1 glycoprotein D-Fc fusion protein (HSV-1) (UniProt Q69091); assay: phage ELISA, glycoprotein D coated, anti-M13 HRP; well C10
[23] = biological target: HSV-1 glycoprotein D-Fc fusion protein (HSV-1) (UniProt Q69091); assay: SPR, G-Fc captured on anti-human IgG; high end tied to G75 by Table 6
[24] = biological target: HSV-1 glycoprotein D-Fc fusion protein (HSV-1) (UniProt Q69091); assay: phage ELISA, glycoprotein D coated, anti-M13 HRP; well D2
[25] = biological target: HSV-1 glycoprotein D-Fc fusion protein (HSV-1) (UniProt Q69091); assay: phage ELISA, glycoprotein D coated, anti-M13 HRP; well F1
[26] = biological target: HSV-1 glycoprotein D-Fc fusion protein (HSV-1) (UniProt Q69091); assay: phage ELISA, glycoprotein D coated, anti-M13 HRP; well A6
[27] = biological target: HSV-1 glycoprotein D-Fc fusion protein (HSV-1) (UniProt Q69091); assay: phage ELISA, glycoprotein D coated, anti-M13 HRP; well D1
[28] = biological target: HSV-1 glycoprotein D-Fc fusion protein (HSV-1) (UniProt Q69091); assay: phage ELISA, glycoprotein D coated, anti-M13 HRP; well H8
[29] = biological target: HSV-1 glycoprotein D-Fc fusion protein (HSV-1) (UniProt Q69091); assay: phage ELISA, glycoprotein D coated, anti-M13 HRP; well G11

B1: 3-G-19_M13R (VHH, not shown: small tags and cut ends)
VHH: QVKLEESGGGLVQPGGSLRLSCTASGFSFAFKDYAMSWVRQAPGKGLEWVSTMSGGGGDTKYADSVKGRFTISRDNNKNTVYLQMNSLKPEDTAVYYCAKGWITTNQFADAPRGQGTQVTVSS
[1]
  A450 nm: 1.07
[2]
  Kd: 1.71 nM
  koff: 0.000368 s⁻¹
  kon: 216000 M⁻¹ s⁻¹
[3]
  Kd: 1.73 nM
  koff: 0.000368 s⁻¹
  kon: 213000 M⁻¹ s⁻¹

B2: 3G-26 (VHH)
VHH: B1 VHH with K3Q, E5V, D33N, N77A, K100E, N106D, D110S
[4]
  A450 nm: 0.892

B3: 3G-43 (VHH)
VHH: B1 VHH with Q1A, K3Q, E5V, T23S, D33N, K100E, T105N, D110S
[5]
  A450 nm: 1.19

B4: 3-G-44_M13R (VHH, not shown: small tags and cut ends)
VHH: B1 VHH with K3Q, E5V, D33N, N77A, T80A, N106D, D110T
[6]
  Kd: 0.048 nM
  koff: 0.000299 s⁻¹
  kon: 6.2e+06 M⁻¹ s⁻¹
[7]
  Kd: 0.051 nM
  koff: 0.000281 s⁻¹
  kon: 5.47e+06 M⁻¹ s⁻¹
[8]
  A450 nm: 1.05
[9]
  Kd: 0.05 nM

B5: 3G-35 (VHH)
VHH: B1 VHH with Q1D, K3Q, E5V, E6D, T23S, F29S, D33N, T105N, D110S
[10]
  A450 nm: 1.13

B6: 3G-24 (VHH)
VHH: B1 VHH with V12A, D33N, N77A, N106D, D110S, Q115H
[11]
  A450 nm: 1.09

B7: 3-G-77_M13R (VHH, not shown: small tags and cut ends)
VHH: B1 VHH with K3Q, E5V, T23S, D33N, T105N, D110F
[6]
  Kd: 0.18 nM
  koff: 0.00102 s⁻¹
  kon: 5.67e+06 M⁻¹ s⁻¹
[7]
  Kd: 0.183 nM
  koff: 0.00093 s⁻¹
  kon: 5.07e+06 M⁻¹ s⁻¹
[12]
  Kd: 0.2 nM
[13]
  A450 nm: 1.25

B8: 3G-40 (VHH)
VHH: QVKLEESGGGLAQPGGSLRLSCAASGFSFSFKNYAMSWVRQAPGKGLEWVSTMSGGGGDIKYADSVKGRFTISRDNAKNTLYLQMNSLKPEDTAVYYCAKGWIATDQFTNTPRGQGTQVTVSS
[14]
  A450 nm: 1.09

B9: 3G-20 (VHH)
VHH: EVQLVESGGGLVQPGGSLTLSCAASGFSFSFENYAMSWVRQAPGKGLEWVSTMSGGGGDIKYADSVKGRFTISRDNAKNTLYLQMNNLKPEDSAVYYCAKGWITTNRLTNTPRGQGTQVTVSS
[15]
  A450 nm: 1.18

B10: 3G-8 (VHH)
VHH: B9 VHH with E1H, L108F
[16]
  A450 nm: 0.933

B11: 3G-36 (VHH)
VHH: B9 VHH with E1Q, R107Q, L108F
[17]
  A450 nm: 0.934

B12: 3G-59 (VHH)
VHH: B9 VHH with E1Q, T105A, L108F
[18]
  A450 nm: 1.16

B13: 3G-22 (VHH)
VHH: B9 VHH with E1Q, L108F, T111I
[19]
  A450 nm: 1.14

B14: 3G-10 (VHH)
VHH: QVQLVESGGGLVQPGGSLKLSCASSESIFAFKNYAMSWVRQAPGKGLEWVSTMSGGGGDTKYADSVKGRFTISRDNAKNTVYLQMNSLKPEDTAVYYCAKGWITTDQFASAPRGHGTQVTVSS
[20]
  A450 nm: 1.14

B15: 3-G-75_M13R (VHH, not shown: small tags and cut ends)
VHH: QVKLEESGGGVVQDGGSLRLSCAAIEQFFTTNAMAWFRQAPGKERELVAATDWSGQSTSYADSVKGRFTISRDTAKNVMYLQMNILHTEDTAVYYCARAPGRVLLTSDLESYTIWGQGTQVTVSS
[21]
  Kd: 4 nM
[6]
  Kd: 3.86 nM
  koff: 0.0152 s⁻¹
  kon: 3.93e+06 M⁻¹ s⁻¹
[7]
  Kd: 4.02 nM
  koff: 0.0139 s⁻¹
  kon: 3.47e+06 M⁻¹ s⁻¹
[22]
  A450 nm: 1.13
[23]
  Kd: 4 nM

B16: 3G-12 (VHH)
VHH: DVQLVESGGGLVQPGGSLRLSCAASGFSFSFKNYAMTWVRQAPGKGLEWVSTMSGGGDETKYADSVKGRFTISRDNTKNTLYLQMNSLKPEDTAVYYCAKGWITTDRFTNTPRGQGTQVTVSS
[24]
  A450 nm: 1.01

B17: 3G-6 (VHH)
VHH: B16 VHH with D1Q, A23T, T37S, D58G, E59D, T77A, N110D
[25]
  A450 nm: 0.951

B18: 3-G-41_M13R (VHH, not shown: small tags and cut ends)
VHH: B8 VHH with K3Q, E5V, A12V, A104T
[6]
  Kd: 0.092 nM
  koff: 0.000279 s⁻¹
  kon: 3.05e+06 M⁻¹ s⁻¹
[7]
  Kd: 0.096 nM
  koff: 0.000274 s⁻¹
  kon: 2.85e+06 M⁻¹ s⁻¹
[26]
  A450 nm: 0.805

B19: 3G-4 (VHH)
VHH: B16 VHH with D1Q, Q3K, V5E, T37S
[27]
  A450 nm: 1.09

B20: 3G-64 (VHH)
VHH: B16 VHH with D1Q, T37S, G56S, D58G, E59D, T77A, N110D, T111A
[28]
  A450 nm: 0.985

B21: 3G-87 (VHH)
VHH: B16 VHH with K32E, T37S, D58G, E59D, T77A, T80M, P112L
[29]
  A450 nm: 1.13
